This is an account of results in publication PMC9499513 (Proceedings of the National Academy of Sciences of the …, 2022).

This test has as its target histone H4 (X. laevis, UniProt P62799 1-103). As to the kind of experiment: cryo-EM structure.

B1: IMPORTIN-4 (natural protein)
chain: MESAGLEQLLRELLLPDTERIRRATEQLQIVLRAPAALPALCDLLASAADPQIRQFAAVLTRRRLNTRWRRLAAEQRESLKSLILTALQRETEHCVSLSLAQLSATIFRKEGLEAWPQLLQLLQHSTHSPHSPEREMGLLLLSVVVTSRPEAFQPHHRELLRLLNETLGEVGSPGLLFYSLRTLTTMAPYLSTEDVPLARMLVPKLIMAMQTLIPIDEAKACEALEALDELLESEVPVITPYLSEVLTFCLEVARNVALGNAIRIRILCCLTFLVKVKSKALLKNRLLPPLLHTLFPIVAAEPPPGQLDPEDQDSEEEELEIELMGETPKHFAVQVVDMLALHLPPEKLCPQLMPMLEEALRSESPYQRKAGLLVLAVLSDGAGDHIRQRLLPPLLQIVCKGLEDPSQVVRNAALFALGQFSENLQPHISSYSREVMPLLLAYLKSVPLGHTHHLAKACYALENFVENLGPKVQPYLPELMECMLQLLRNPSSPRAKELAVSALGAIATAAQASLLPYFPAIMEHLREFLLTGREDLQPVQIQSLETLGVLARAVGEPMRPLAEECCQLGLGLCDQVDDPDLRRCTYSLFAALSGLMGEGLAPHLEQITTLMLLSLRSTEGIVPQYDGSSSFLLFDDESDGEEEEELMDEDVEEEDDSEISGYSVENAFFDEKEDTCAAVGEISVNTSVAFLPYMESVFEEVFKLLECPHLNVRKAAHEALGQFCCALHKACQSCPSEPNTAALQAALARVVPSYMQAVNRERERQVVMAVLEALTGVLRSCGTLTLKPPGRLAELCGVLKAVLQRKTACQDTDEEEEEEDDDQAEYDAMLLEHAGEAIPALAAAAGGDSFAPFFAGFLPLLVCKTKQGCTVAEKSFAVGTLAETIQGLGAASAQFVSRLLPVLLSTAQEADPEVRSNAIFGMGVLAEHGGHPAQEHFPKLLGLLFPLLARERHDRVRDNICGALARLLMASPTRKPEPQVLAALLHALPLKEDLEEWVTIGRLFSFLYQSSPDQVIDVAPELLRICSLILADNKIPPDTKAALLLLLTFLAKQHTDSFQAALGSLPVDKAQELQAVLGLS
B1: the binding result is on record as “binds”.
